Consider 2 molecules from paper PMC5300155, “Biochemical and biophysical investigations of the interaction between human glucokinase and pro-apoptotic BAD” (PLoS ONE, 2017).

One data set concerns the target T1, human pancreatic GCK (Homo sapiens, UniProt P35557).
T1 construct: hexahistidine (N); made in house; host or cells: glucokinase auxotroph BM5340(DE3)
T1 sequence (P35557 1-465): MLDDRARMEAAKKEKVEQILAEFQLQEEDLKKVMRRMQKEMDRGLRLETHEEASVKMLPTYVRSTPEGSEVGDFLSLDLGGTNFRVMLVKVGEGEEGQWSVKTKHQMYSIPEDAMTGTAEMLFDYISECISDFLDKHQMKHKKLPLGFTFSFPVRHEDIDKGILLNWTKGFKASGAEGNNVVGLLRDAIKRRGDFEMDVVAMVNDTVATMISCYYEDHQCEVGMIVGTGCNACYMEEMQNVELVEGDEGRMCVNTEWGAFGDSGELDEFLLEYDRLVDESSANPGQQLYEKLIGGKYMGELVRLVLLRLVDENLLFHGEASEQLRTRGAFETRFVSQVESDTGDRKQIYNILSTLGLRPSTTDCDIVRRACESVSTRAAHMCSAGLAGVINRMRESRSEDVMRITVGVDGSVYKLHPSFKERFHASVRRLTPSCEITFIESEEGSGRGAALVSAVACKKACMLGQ
As to the kind of experiment: Isothermal titration calorimetry with GCK. The conditions noted are these: peptide up to 50 μM into GCK (10 μM), presence and absence of 0.2 M glucose, potassium phosphate 25 mM, DMSO 5%, 25°C. It counts as binding. The method, then: Recombinant human pancreatic GCK containing an N-terminal hexahistidine tag was produced in the glucokinase auxotroph BM5340(DE3) and purified using a previously described procedure. TEV protease was expressed as a GST-fusion protein from a pGEX plasmid encoding the S219V variant, provided by David Waugh (Addgene plasmid 8827). Expression was induced with IPTG (1 mM) for 4 h at 30°C. Cell pellets were resuspended in Tris buffer (50 mM, pH 8.0) containing NaCl (100 mM), glycerol (10% v/v), benzamidine (1 mM) and dithiothreitol (10 mM) and lysed via French Press. Polyethyleneimine (0.1%) was added to the lysate and protein was purified on a glutathione-affinity column (GSTrap, GE Sciences). TEV protease was flash frozen and stored at -80°C for up to 1 month.
Isothermal titration calorimetry was performed at 25°C using a MicroCal VP-ITC (GE Healthcare) instrument. Bcl-xL (100 μM) in BAD buffer (0.1 M Tris, 0.1 M KCl, 0.5 M arginine, 2.5 mM CHAPS, 5 mM TCEP, 10% glycerol, pH 8.5) was titrated into the calorimeter cell containing size-exclusion chromatography purified BAD-GST (10–18 μM) in 4 μL injections. A 21-residue phosphorylated peptide containing the BH3 domain of BAD was synthesized and purified to >95% by Peptide2.0 (pBH3 = NLWAAQRYGRELRRM(p)SDKFVD). The peptide (300 μM) in potassium phosphate buffer (25 mM) containing KCl (25 mM), TCEP (4 mM) and DMSO (5%) with and without glucose (200 mM) was titrated into the cell containing GCK (10 μM) previously dialyzed against the same buffer. GCK (100 μM) in BAD buffer was titrated into the cell containing S118D BAD-GST (10–15 μM) in 13 μL injections. Data were analyzed using Origin software.
(In general: ITC needs no label: the signal is the heat of the interaction.)

For the next data set, the target named is T2, Bcl-xL (Homo sapiens, UniProt Q07817, DEL45-84).
T2 construct: made in house
As to the kind of experiment: Isothermal titration calorimetry of BAD-GST with Bcl-xL. Type of data set: binding. The following applies: ITC, 25°C; Bcl-xL (100 μM) titrated into BAD-GST (10–18 μM), 4 μL injections, BAD buffer pH 8.5; average of two independent experiments. Here is the method: Exon 1 of human bcl-xl lacking the C-terminal residues 189–233 was obtained from Stanley Korsmeyer (Addgene plasmid 8755) and site-directed mutagenesis was performed to create the Δ45–84, Δ210–233 variant. Bcl-xL was expressed and purified using a modified procedure described previously. Briefly, Bcl-xL was purified by nickel affinity chromatography and dialyzed against potassium phosphate buffer (20 mM, pH 7.4) containing NaCl (50 mM), EDTA (1 mM), and DTT (10 mM). Protein was applied to a Superdex 200 10/30 HR size-exclusion column, at a flow rate of 0.02 mL/min, to remove aggregate and oligomers prior to binding assays.
Isothermal titration calorimetry was performed at 25°C using a MicroCal VP-ITC (GE Healthcare) instrument. Bcl-xL (100 μM) in BAD buffer (0.1 M Tris, 0.1 M KCl, 0.5 M arginine, 2.5 mM CHAPS, 5 mM TCEP, 10% glycerol, pH 8.5) was titrated into the calorimeter cell containing size-exclusion chromatography purified BAD-GST (10–18 μM) in 4 μL injections. A 21-residue phosphorylated peptide containing the BH3 domain of BAD was synthesized and purified to >95% by Peptide2.0 (pBH3 = NLWAAQRYGRELRRM(p)SDKFVD). […] Data were analyzed using Origin software.

Data set [1] can be described thus: Proteolysis and aggregation of recombinant BAD produced under native conditions. It counts as physicochemical. Here is the method: Under native conditions, cell pellet was resuspended and lysed in HEPES buffer (50 mM, pH7.6) containing NaCl (50 mM), imidazole (25 mM), glycerol (5%), and DTT (5 mM). PMSF, benzamidine, a protease inhibitor cocktail (Pierce), and BSA (0.1 mg/mL) were added to the lysis buffer in attempts to reduce protein degradation. Clarified lysate was applied to a HisTrap affinity column and following purification, purified BAD-GST was applied to a Superdex 200 10/30 HR size-exclusion column, at a flow rate of 0.02 mL/min.
Protein samples were excised from SDS-PAGE gels and exposed to trypsin digestion prior to analysis by mass spectroscopy. MALDI-TOF was performed on a Shimadzu Axima CFP MALDI-TOF in positive ion, reflectron mode. Linear trap quadripole (LTQ) Orbitrap MS was performed on a Thermo LTQ Orbitrap Velos HPLC-nESI-LIT-Orbitrap.
(§1) To facilitate biochemical characterization of the BAD:GCK complex, we sought a method to produce functional, recombinant human BAD. Several groups have used microbial hosts to produce BAD, however, functional characterization of the resulting protein was limited.

For data set [2] the following is noted: produced in Escherichia coli; ref [30]; cited from earlier work.
From the text: as §1

Data set [3] in a line: Analytical ultracentrifugation sedimentation velocity (oligomerization, shape). The following applies: 20°C, 50,000 x g. It counts as physicochemical. Here is the method: Sedimentation velocity experiments were conducted with an Optima XLI Ultracentrifuge (Beckman Coulter) using a four-hole rotor with three 420 μL samples in standard double-sector Epon centerpieces equipped with sapphire windows. Absorbance and interference data were collected simultaneously. Size-exclusion purified proteins were concentrated to OD280 nm = 0.3–1.0 prior to centrifugation. For complex formation, proteins were mixed in a 1:1 molar ratio in BAD buffer (0.1 M Tris, 0.1 M KCl, 0.5 M arginine, 2.5 mM CHAPS, 5 mM TCEP, 10% glycerol, pH 8.5) and incubated on ice 30 min prior to the start of the experiment. Experiments were carried out at 20°C and 50,000 x g. Data were analyzed with Ultrascan III software using a minimum of 70 scans per sample for analysis. Van Holde-Weischet analysis was performed to obtain S20,W values.

T2 sequence (Q07817 with tags, fused parts or gaps DEL45-84): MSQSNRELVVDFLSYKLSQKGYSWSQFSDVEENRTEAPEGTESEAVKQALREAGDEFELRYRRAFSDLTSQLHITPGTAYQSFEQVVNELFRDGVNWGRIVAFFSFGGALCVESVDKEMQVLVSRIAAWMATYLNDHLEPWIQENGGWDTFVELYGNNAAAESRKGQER

In the case of “NLWAAQRYGRELRRM(p)SDKFVD [pBH3, 21-residue phosphorylated peptide containing the BH3 domain of BAD]”, the results for the “Heat change on addition to GCK (ITC)” value on human pancreatic GCK and at human pancreatic GCK (listed as phosphorylated BH3 peptide) were “No detectable heat change” and “do not indicate an interaction”, respectively.

B1: BAD-GST: recombinant human BAD with N-terminal hexahistidine tag and C-terminal GST fusion, TEV consensus sequence between (protein)
chain: MFQIPEFEPSEQEDSSSAERGLGPSPAGDGPSGSGKHHRQAPGLLWDASHQQEQPTSSSHHGGAGAVEIRSRHSSYPAGTEDDEGMGEEPSPFRGRSRSAPPNLWAAQRYGRELRRMSDEFVDSFKKGLPRPKSAGTATQMRQSSSWTRVFQSWWDRNLGRGSSAPSQ
modifications: left off: His6, N-terminal, state not stated | GST, C-terminal, kept
In the case of B1, binding in the data set with Bcl-xL was characterised by a dissociation constant (Kd) of 7 nM. For the same molecule, the “Proteolysis during recombinant production” value in data set [1] (MALDI-TOF, protease inhibitors failed to alleviate degradation) is on record as “extensive C-terminal proteolysis”. Also, the “Aggregation when produced under native conditions” value in data set [1] (native conditions, E. coli) is “leads to aggregation of the protein”. The “Proteolysis of recombinant BAD” value in data set [2] is reported as “highly susceptible to proteolysis”. Besides, the “Molecular weight from sedimentation velocity (oligomerization state)” value in data set [3] (predicted monomer BAD-GST 47 kDa, dimer) was 98 kDa. For the same molecule, the “Frictional ratio f/f0” value in data set [3] (sedimentation velocity, unity = compact sphere) worked out at 3.9.

As a reminder, the Kd is a measure of binding affinity in units of concentration. A lower Kd goes with tighter binding.
